# According to the supplement of paper PMC9112550, “Optimization of the antimicrobial peptide Bac7 by deep mutational scanning” (BMC Biology, 2022):
# Tested on: Escherichia coli TOP10
# Test: shrunken log2 fold change of peptide-encoding DNA abundance (4.5 h post-induction vs induction); higher = less antimicrobial activity (less host growth inhibition)
# Conditions: time post-induction: 4.5 h; library: site-saturation at positions 5, 18, 19, 20
# 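Also: peptides expressed intracellularly from a pBAD plasmid library in pooled LB shake-flask culture, induced with 0.3% L-arabinose, DNA abundance read by NGS, three biological replicates, DESeq2 with apeglm shrinkage.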
sequence,measurement,value
RRIRARPPRLPRPRPRPGMDPRP,shrunken log2 fold change,0.543
RRIRCRPPRLPRPRPRPFPHPRP,shrunken log2 fold change,-0.175
RRIRFRPPRLPRPRPRPCTMPRP,shrunken log2 fold change,-0.462
RRIRERPPRLPRPRPRPMPEPRP,shrunken log2 fold change,-0.114
RRIRFRPPRLPRPRPRPQKIPRP,shrunken log2 fold change,-0.299
RRIRRRPPRLPRPRPRPCAIPRP,shrunken log2 fold change,3.08
RRIRMRPPRLPRPRPRPVKNPRP,shrunken log2 fold change,0.00715
RRIRGRPPRLPRPRPRPAPDPRP,shrunken log2 fold change,1.07
RRIRVRPPRLPRPRPRPPWWPRP,shrunken log2 fold change,0.665
RRIRVRPPRLPRPRPRPHQNPRP,shrunken log2 fold change,-0.296
RRIRGRPPRLPRPRPRPMITPRP,shrunken log2 fold change,0.24
RRIRMRPPRLPRPRPRPHADPRP,shrunken log2 fold change,2
RRIRTRPPRLPRPRPRPSQVPRP,shrunken log2 fold change,-0.2
RRIRKRPPRLPRPRPRPEVGPRP,shrunken log2 fold change,1.29
RRIRARPPRLPRPRPRPFEIPRP,shrunken log2 fold change,0.083
RRIRARPPRLPRPRPRPGYYPRP,shrunken log2 fold change,-0.254
RRIRLRPPRLPRPRPRPDGFPRP,shrunken log2 fold change,0.052
RRIRLRPPRLPRPRPRPNKYPRP,shrunken log2 fold change,-0.742
RRIRARPPRLPRPRPRPYTQPRP,shrunken log2 fold change,-0.593
RRIRWRPPRLPRPRPRPDMWPRP,shrunken log2 fold change,0.228
RRIRRRPPRLPRPRPRPGCIPRP,shrunken log2 fold change,0.0498
RRIRCRPPRLPRPRPRPQQPPRP,shrunken log2 fold change,0.345
RRIRIRPPRLPRPRPRPIQPPRP,shrunken log2 fold change,-0.044
RRIRFRPPRLPRPRPRPAWMPRP,shrunken log2 fold change,0.336
RRIRGRPPRLPRPRPRPEWQPRP,shrunken log2 fold change,0.783
RRIRSRPPRLPRPRPRPDMKPRP,shrunken log2 fold change,-0.43
RRIRFRPPRLPRPRPRPMCCPRP,shrunken log2 fold change,-0.429
RRIRRRPPRLPRPRPRPVVTPRP,shrunken log2 fold change,0.911
RRIRFRPPRLPRPRPRPFTVPRP,shrunken log2 fold change,-0.246
RRIRDRPPRLPRPRPRPSNKPRP,shrunken log2 fold change,-0.325
RRIRDRPPRLPRPRPRPKMNPRP,shrunken log2 fold change,-0.366
RRIRKRPPRLPRPRPRPQMIPRP,shrunken log2 fold change,-0.14
RRIRHRPPRLPRPRPRPYACPRP,shrunken log2 fold change,-0.225
RRIRQRPPRLPRPRPRPVAMPRP,shrunken log2 fold change,0.0794
RRIRIRPPRLPRPRPRPPKMPRP,shrunken log2 fold change,-0.0476
RRIRARPPRLPRPRPRPPFGPRP,shrunken log2 fold change,0.436
RRIRRRPPRLPRPRPRPEDCPRP,shrunken log2 fold change,-0.0482
RRIRRRPPRLPRPRPRPDHAPRP,shrunken log2 fold change,0.0467
RRIRDRPPRLPRPRPRPIHNPRP,shrunken log2 fold change,-0.06
RRIRKRPPRLPRPRPRPSWQPRP,shrunken log2 fold change,-0.212
RRIRQRPPRLPRPRPRPWCLPRP,shrunken log2 fold change,-0.275
RRIRIRPPRLPRPRPRPLCWPRP,shrunken log2 fold change,-0.0614
RRIRPRPPRLPRPRPRPKNFPRP,shrunken log2 fold change,-0.262
RRIRPRPPRLPRPRPRPHRIPRP,shrunken log2 fold change,-0.414
RRIRQRPPRLPRPRPRPQLDPRP,shrunken log2 fold change,0.188
RRIRKRPPRLPRPRPRPSQNPRP,shrunken log2 fold change,0.269
RRIRIRPPRLPRPRPRPHMGPRP,shrunken log2 fold change,-1.08
RRIRWRPPRLPRPRPRPARQPRP,shrunken log2 fold change,0.0282
RRIRGRPPRLPRPRPRPRVAPRP,shrunken log2 fold change,0.816
RRIRFRPPRLPRPRPRPMGVPRP,shrunken log2 fold change,-0.457
